Results published in PMC11877715, “NONO regulates m^5C modification and alternative splicing of PTEN mRNAs to drive gastric cancer progression” (Journal of Experimental & Clinical Cancer Research : CR, 2025).

Biological target: T1, purified HA-NSUN2 (human, UniProt Q08J23 1-767)
T1 construct: NSUN2, human, in p-GEX-4T-1; The plasmid is called GST-HA-NSUN2, the protein in the assay HA-NSUN2; also called GST-HA-NSUN2; HA-NSUN2 fusion protein; source: E. coli, purified (prepared 'as described previously')
Assay: pull-down; Called GST pull-down; about 100 µg GST-Flag-NONO and HA-NSUN2 incubated overnight with anti-Flag antibody at 4 °C, protein A/G magnetic beads 1 h at room temperature, low-pH elution, Western blot
Conditions: both partners purified

T1 sequence (Q08J23 whole entry, the tested form may be a part): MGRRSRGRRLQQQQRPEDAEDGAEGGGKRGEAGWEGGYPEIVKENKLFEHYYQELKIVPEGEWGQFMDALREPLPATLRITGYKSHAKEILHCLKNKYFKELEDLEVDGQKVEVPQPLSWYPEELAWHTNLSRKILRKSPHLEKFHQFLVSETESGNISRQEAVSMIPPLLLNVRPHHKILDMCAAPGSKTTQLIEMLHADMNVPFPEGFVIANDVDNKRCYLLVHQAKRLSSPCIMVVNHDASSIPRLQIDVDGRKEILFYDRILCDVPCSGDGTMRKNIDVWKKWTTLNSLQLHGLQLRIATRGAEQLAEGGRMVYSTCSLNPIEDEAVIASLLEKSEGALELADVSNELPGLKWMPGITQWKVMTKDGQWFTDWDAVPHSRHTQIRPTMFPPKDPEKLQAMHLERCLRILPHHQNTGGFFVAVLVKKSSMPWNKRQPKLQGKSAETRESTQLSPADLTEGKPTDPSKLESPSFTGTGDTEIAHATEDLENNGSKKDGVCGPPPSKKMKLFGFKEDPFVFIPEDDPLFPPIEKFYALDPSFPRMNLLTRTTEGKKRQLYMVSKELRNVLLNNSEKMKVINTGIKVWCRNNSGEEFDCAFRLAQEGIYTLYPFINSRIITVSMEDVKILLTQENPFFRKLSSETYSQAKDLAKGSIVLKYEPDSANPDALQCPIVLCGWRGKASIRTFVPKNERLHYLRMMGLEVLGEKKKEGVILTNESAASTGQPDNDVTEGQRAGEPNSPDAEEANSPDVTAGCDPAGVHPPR

B1: GST-Flag-NONO (natural protein, human, UniProt Q15233 1-471, looked up)
chain: MQSNKTFNLEKQNHTPRKHHQHHHQQQHHQQQQQQPPPPPIPANGQQASSQNEGLTIDLKNFRKPGEKTFTQRSRLFVGNLPPDITEEEMRKLFEKYGKAGEVFIHKDKGFGFIRLETRTLAEIAKVELDNMPLRGKQLRVRFACHSASLTVRNLPQYVSNELLEEAFSVFGQVERAVVIVDDRGRPSGKGIVEFSGKPAARKALDRCSEGSFLLTTFPRPVTVEPMDQLDDEEGLPEKLVIKNQQFHKEREQPPRFAQPGSFEYEYAMRWKALIEMEKQQQDQVDRNIKEAREKLEMEMEAARHEHQVMLMRQDLMRRQEELRRMEELHNQEVQKRKQLELRQEEERRRREEEMRRQQEEMMRRQQEGFKGTFPDAREQEIRMGQMAMGGAMGINNRGAMPPAPVPAGTPAPPGPATMMPDGTLGLTPPTTERFGQAATMEGIGAIGGTPPAFNRAAPGAEFAPNKRRRY
notes: NONO, human, FL, in p-GEX-4T-1; also called GST-tagged Flag-NONO; FLAG-NONO-FL in p-GEX-4T-1; source: E. coli, purified (prepared 'as described previously')
  binding result: binds
